Experimental findings from US20180355050A1 (Ablynx, published 2018) are described below.

For test [1], the target named is T1, human CD40L expressed on CHO cells (human, UniProt P29965 1-261).
T1 sequence: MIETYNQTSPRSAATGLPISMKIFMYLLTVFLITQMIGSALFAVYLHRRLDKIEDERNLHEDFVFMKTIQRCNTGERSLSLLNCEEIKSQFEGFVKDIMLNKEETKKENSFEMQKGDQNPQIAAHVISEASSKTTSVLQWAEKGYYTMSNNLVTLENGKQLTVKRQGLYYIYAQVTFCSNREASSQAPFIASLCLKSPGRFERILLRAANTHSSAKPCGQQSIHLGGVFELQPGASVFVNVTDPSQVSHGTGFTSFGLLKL
Description: cell-based or functional assay.

Test [2] addresses T1, human CD40L expressed on CHO cells. Description: cell-based or functional assay. This is another data set of the same source.
The target is the same in test [3]. In words: cell-based or functional assay. The source holds these as a separate data set.
The target of test [4] is T2, rat CD40L on transiently transfected HEK cells (rat, UniProt Q9Z2V2 1-260).
T2 construct: whole, on cells
T2 sequence (looked up): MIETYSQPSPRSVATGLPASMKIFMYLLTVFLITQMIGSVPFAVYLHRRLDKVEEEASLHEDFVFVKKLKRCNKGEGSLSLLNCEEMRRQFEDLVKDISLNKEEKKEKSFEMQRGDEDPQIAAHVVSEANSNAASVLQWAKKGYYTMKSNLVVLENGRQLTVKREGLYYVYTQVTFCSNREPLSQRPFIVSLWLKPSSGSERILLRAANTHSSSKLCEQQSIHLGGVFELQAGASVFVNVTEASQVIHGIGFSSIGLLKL
In words: FACS on HEK cells transiently transfected with rat CD40L. The method, then:
Cross-reactivity to rat CD40L (UniProt accession numbers: Q9Z2V2 and Q9R254 (secondary)) was tested in FACS. Purified Nanobodies were analyzed on FACS for binding to rat CD40L. 2×10⁵ cells (transiently transfected rat CD40L HEK cells) were incubated with the purified Nanobodies in FACS buffer for 30 minutes at 4° C. Cells were washed 3×, re-suspended and incubated for 30 minutes at 4° C. Cells were washed again 3× and dead cells were stained with TOPRO3 (Molecular probes, T3605). Samples were analyzed on a FACSarray™ (BD Biosciences).

The target in test [5] is T3, recombinant human CD40L (human, UniProt P29965 108-261, limits assumed).
T3 construct: Bought soluble recombinant protein (R&D, HEK, 6420-CL/CF); also called hCD40L; human CD40L (HEK, R&D)
T3 sequence: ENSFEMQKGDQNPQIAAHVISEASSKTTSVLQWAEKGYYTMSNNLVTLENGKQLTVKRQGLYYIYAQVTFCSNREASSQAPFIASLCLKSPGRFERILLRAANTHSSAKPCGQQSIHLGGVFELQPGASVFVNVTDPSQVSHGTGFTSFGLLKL
In words: FACS ligand competition, biotinylated human CD40L on cyno CD40 HEK cells. Here is the method: Cross-reactivity to cynomolgus CD40L (UniProt accession number: G7PG38) and rhesus CD40L (UniProt accession number: G7N4M5) was tested in a ligand competition assay. […] 2×10⁵ cells (transiently transfected HEK cells) were incubated with dilution series of the purified Nanobodies in FACS buffer for 30 minutes at 4° C. Cells were then washed 3× and finally resuspended in FACS buffer containing Streptavidin-PE (BD Pharmingen, #554061). This mixture was incubated for 30 minutes at 4° C. Cells were further handled as set out above.

Test [6] has as its target T3, recombinant human CD40L. Description: FACS ligand competition, biotinylated human CD40L on human CD40 HEK cells.
Test [7] concerns the target T3, recombinant human CD40L. Description: FACS ligand competition, biotinylated human CD40L on rhesus CD40 HEK cells.
The target of the next test is human TNFα (human, UniProt P01375 77-233). Description: competition ELISA on coated human CD40L, fixed Nanobody, dilution series of competitor. An excerpt: (§1) The Basic Local Alignment Search Tool (BLAST) was used to identify the closest related protein in the human protein database. […] A fixed concentration of Nanobody was used together with a dilution series of competitor (TNFα, HVEM-L (TNF14) and hRANKL (TN F11); CD40L was used as positive control), starting at a 100-fold excess. The Nano bodies were detected with anti-FLAG-HRP (Sigma (A8592)).
human TNFα, sequence (P01375 77-233 limits assumed): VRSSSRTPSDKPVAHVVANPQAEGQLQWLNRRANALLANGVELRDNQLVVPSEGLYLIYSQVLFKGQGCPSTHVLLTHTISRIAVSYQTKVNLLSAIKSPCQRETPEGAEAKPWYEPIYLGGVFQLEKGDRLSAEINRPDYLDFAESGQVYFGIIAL
(In general: In an ELISA, binding on a coated surface is turned into a signal by an enzyme label.)

For the next test, the target named is HVEM-L (TNF14) (human, UniProt O43557 74-240, limits assumed). The test is described as above.
HVEM-L (TNF14), sequence (O43557 74-240 limits assumed): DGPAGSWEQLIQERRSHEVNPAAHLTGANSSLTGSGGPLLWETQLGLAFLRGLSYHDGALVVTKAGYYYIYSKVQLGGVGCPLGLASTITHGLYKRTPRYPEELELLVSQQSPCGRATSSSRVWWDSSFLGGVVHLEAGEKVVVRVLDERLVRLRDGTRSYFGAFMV
Text: as §1

In a further test the target is T4, hRANKL (TNF11) (human, UniProt O14788 140-317, limits assumed).
T4 sequence (looked up): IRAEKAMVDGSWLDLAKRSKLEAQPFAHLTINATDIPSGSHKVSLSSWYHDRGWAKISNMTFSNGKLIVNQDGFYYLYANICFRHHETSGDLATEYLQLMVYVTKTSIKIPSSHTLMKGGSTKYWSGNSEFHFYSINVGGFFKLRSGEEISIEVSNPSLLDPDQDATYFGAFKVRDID
The test is described as above.
Text: as §1

A further test deals with T5, recombinant mouse CD40L (mouse, UniProt P27548 112-260, limits assumed).
T5 construct: also called mouse CD40L (R&D NSO)
T5 sequence (looked up): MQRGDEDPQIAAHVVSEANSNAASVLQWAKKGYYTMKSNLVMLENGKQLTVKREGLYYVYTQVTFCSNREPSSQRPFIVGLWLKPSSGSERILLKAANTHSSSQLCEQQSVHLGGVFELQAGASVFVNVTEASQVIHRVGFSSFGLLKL
In words: SPR (ProteOn), immobilised recombinant mouse CD40L 3000-4000 RU; member of the lead panel. Here is the method:
To assess binding to mouse CD40L (UniProt accession number: P27548), ProteOn GLC Sensor Chips were coated with 3000-4000 RU of recombinant mouse CD40L (R&D NSO) in 10 mM acetate buffer pH5.5. Purified monovalent anti-CD40L Nanobodies in ProteOn running buffer: PBS/Tween (phosphate buffered saline, pH 7.4 with 0.005% Tween 20) were flown over the sensor chips at 100 nM. Processed curves were used for off-rate analysis based on the Langmuir dissociation model.

Test [8] deals with T3, recombinant human CD40L. In words: SPR off-rate (ProteOn, 37 °C), immobilised recombinant human CD40L. The method, then: All off-rates were determined on a ProteOn XPR36 instrument (Bio-Rad Laboratories, Inc.). […] 10-fold diluted periplasmic extracts of anti-CD40L Nanobodies expressing E. coli clones in running buffer ProteOn PBS/Tween (phosphate buffered saline, pH7.4 with 0.005% Tween 20) were flown over the sensor chips. Purified monovalent anti-CD40L Nanobodies were flown over the sensor chips at 100 nM. […] Data obtained was double referenced by Interspot subtraction as well as subtraction of a blank buffer injection. Processed curves were used for off-rate analysis based on the Langmuir dissociation model.
Affinity maturation was performed by screening error prone libraries generated from each parental Nanobody clone. In this approach, amino acid substitutions result from random introduction of mutations in the Nanobody encoding DNA via an error prone PCR. As a consequence, amino acid substitutions are found both in the CDRs and in the Framework Regions (FRs). 5 rounds of phage display selections were performed in solution using decreasing concentrations of recombinant CD40L (from 50 nM to 0.05 pM). Following phage display, individual Nanobodies were sequenced and off-rates were determined by SPR analysis (cf. Example 6.1.3).

Substitutions are numbered along the chain they refer to. Names and notes keep the numbering of the source.

As to CDP7657 (non-pegylated) (Fab), in test [1], the IC50 (pM), B-cell activation is 101 pM and the IC50 (pM), B-cell proliferation is 864 pM.

B1: C0100044B07 (VHH)
VHH: EVQLVESGGGLVQPGGRLRLSCAASGFTLDYYALAWFRQAPGKEREGVSCISSSEGSTDYADYADSVKGRFTISRDTAKNTVYLQMNNLKPEDTAVYYCATDETTFFSGSCTLSAATFGSWGQGTLVTVSS
notes: Monovalent Nanobody; tag of the monovalent form not spelled out; also called C01000044B07
The IC50 is the point on the concentration scale where inhibition reaches its midpoint. Turning to B1, the “IC50 (M), B-cell proliferation assay, +HSA” value (“IC50 (M) … +HSA” for short) in [2] came to 1.14e-09 M. In [3], the “Average IC50 (M), B-cell proliferation assay” value (from here on “Average IC50 (M)”) stood at 9.71e-10 M. Further, the binding result in test [4] is given as “no binding”; with human TNFα, “no binding (tested: competitor from a 100-fold excess)”; in the test with HVEM-L (TNF14) it was “no binding (tested: competitor from a 100-fold excess)”; with hRANKL (TNF11), “no binding (tested: competitor from a 100-fold excess)”; with recombinant mouse CD40L, “no binding (tested: 100 nM)”. Further, the “% block (maximum observed effect)” value with recombinant human CD40L [5] was found to be 79%; with recombinant human CD40L [6], 82%; with recombinant human CD40L [7], 83%. In addition, the values for the IC50 with recombinant human CD40L [5], with recombinant human CD40L [6] and in the test with recombinant human CD40L [7] were 5.28 nM, 5.89 nM and 5.41 nM, respectively.

B2: C0100028B02 (VHH)
VHH: EVQLVESGGGLVQPGGSLRLSCAASGFTLEYYAIGWFRQAPGKEREGVSCISSEGSTSYTDSVKGRFTISRDNAKNTVYLQMNSLKPEDTAVYYCATDPDRGFLGSSCDTQSHQYDYWGQGTLVTVSS
notes: Monovalent Nanobody produced in P. pastoris (pAX205); Detected with anti-FLAG reagents, but the tag of the monovalent form is not spelled out; also called C01000028B02
For the molecule B2, the “IC50 (M) … +HSA” value in test [2] is 2.81e-09 M. The “Average IC50 (M)” value in [3] stood at 1.15e-09 M. Further, the binding result in [4] is “no binding”; with human TNFα it was “no binding (tested: competitor from a 100-fold excess)”; with HVEM-L (TNF14) it was “no binding (tested: competitor from a 100-fold excess)”; with hRANKL (TNF11), “no binding (tested: competitor from a 100-fold excess)”; in the test with recombinant mouse CD40L it was “no binding (tested: 100 nM)”. Also, the “% block (maximum observed effect)” value with recombinant human CD40L [5] is 75%; with recombinant human CD40L [6], 71%; in the test with recombinant human CD40L [7] it was 72%. Also, the IC50 is 4.7 nM with recombinant human CD40L [5], 4.43 nM in the test with recombinant human CD40L [6] and 4.55 nM with recombinant human CD40L [7].

B3: C0100028B02 D101G (VHH, name in Kabat numbering)
VHH: B2 VHH with D116G
As to B3, the “fold improved off-rate over parental C0100028B02” value with recombinant human CD40L [8] worked out at 1.3 fold.

B4: C0100028B02 L100aF (VHH, name in Kabat numbering)
VHH: B2 VHH with L104F
In the case of B4, the “fold improved off-rate over parental C0100028B02” value with recombinant human CD40L [8] came out at 1.3 fold.

B5: C0100028B02 Y102F (VHH, name in Kabat numbering)
VHH: B2 VHH with Y117F
As to B5, the “fold improved off-rate over parental C0100028B02” value with recombinant human CD40L [8] was found to be 1.8 fold.

B6: C0100046B03 (VHH)
VHH: EVQLVESGGGLVQAGGSLRLSCAASGRTPLNYHMAWFRQAPGKEREFVAAISSLLGSTDYSDSLKDRFTISRDNAKATLYLRMNNLKPEDTAVYYCAARETTHYSTSDRVNEMRHYDYWGQGTLVTVSS
notes: Monovalent Nanobody; tag of the monovalent form not spelled out; also called C01000046B03
Turning to B6, the “IC50 (M) … +HSA” value in test [2] came out at 2.38e-09 M. Also, in test [3], the “Average IC50 (M)” value was determined as 2.18e-09 M. The binding result was “no binding” in test [4]; “no binding (tested: competitor from a 100-fold excess)” with human TNFα; “no binding (tested: competitor from a 100-fold excess)” with HVEM-L (TNF14); “no binding (tested: competitor from a 100-fold excess)” in the test with hRANKL (TNF11); “no binding (tested: 100 nM)” in the test with recombinant mouse CD40L. Further, the “% block (maximum observed effect)” value came out at 97% with recombinant human CD40L [5], 96% with recombinant human CD40L [6] and 100% with recombinant human CD40L [7]. For the same molecule, the IC50 with recombinant human CD40L [5] is 22.7 nM; in the test with recombinant human CD40L [6], 15.3 nM; with recombinant human CD40L [7] it was 28.2 nM.

B7: C0100046B03 H100kA (VHH, name in Kabat numbering)
VHH: B6 VHH with H115A
With B7, in the test with recombinant human CD40L [8], the “fold improved off-rate over parental C0100046B03” value is approximately 2 fold.

B8: C0100046B03 H100kN (VHH, name in Kabat numbering)
VHH: B6 VHH with H115N
notes: single mutation
B8: the “fold improved off-rate over parental C0100046B03” value with recombinant human CD40L [8] worked out at 2.6 fold.

B9: C0100046B03 H100kS (VHH, name in Kabat numbering)
VHH: B6 VHH with H115S
Regarding B9, the “fold improved off-rate over parental C0100046B03” value with recombinant human CD40L [8] was approximately 2 fold.

B10: C0100046B03 Y100I (VHH, name in Kabat numbering)
VHH: B6 VHH with Y104I
Consider B10, for which the “fold improved off-rate over parental C0100046B03” value with recombinant human CD40L [8] was 1.5 fold.
